Data published in the Human Domainome abundance scans (Beltran et al. 2025).
± gives the uncertainty stated by the source.

B1: Dynamin-binding protein, residues 242 to 304; numbered along this chain, Q6XZF7 (parent)
chain: EEPGTYGVALYRFQALEPNELDFEVGDKIRILATLEDGWLEGSLKGRTGIFPYRFVKLCPDTR

Variants of: B1
Assay: abundance fitness (aPCA) (normalised: wild type 0, dead -1); higher = more abundant; growth selection in yeast, the domain comes from the species named
Details: Homo sapiens

Variant	abundance fitness
EEPGTYGVAWYRFQALEPNELDFEVGDKIRILATLEDGWLEGSLKGRTGIFPYRFVKLCPDTR [L10W]	-0.397 ± 0.15
EYPGTYGVALYRFQALEPNELDFEVGDKIRILATLEDGWLEGSLKGRTGIFPYRFVKLCPDTR [E2Y]	0.015 ± 0.056
EEPGTYGVALYRFQALEPNELDFEVGDKIRILATLEDGWLEGSLKGRTGIFPYRFVKLCPDPR [T62P]	0.079 ± 0.06
EEPGTYGVALYRFQALEPNELDFEVGDKIRILATLEDGWLEGSLKGRTGIFPYRFVKLCPDHR [T62H]	0.044 ± 0.054
EEPGTYGVALYRFQALEPNELDFEVGDKIRILATLEDGWLEGSLKGRTGIFPYRFVKLCPDCR [T62C]	-0.198 ± 0.062
EEPGTYGVALYRFQALEPNELDFEVGDKIRILATVEDGWLEGSLKGRTGIFPYRFVKLCPDTR [L35V]	-0.203 ± 0.05
EEPGTYGVALYRFQALEPNELDFEVGDKIRILATYEDGWLEGSLKGRTGIFPYRFVKLCPDTR [L35Y]	-0.187 ± 0.059
EEPGTYGVALYRFQALEPNELDFEVGDKIKILATLEDGWLEGSLKGRTGIFPYRFVKLCPDTR [R30K]	0.268 ± 0.13
EEPGTYGVALYRFQALEPNELDFEVGDKIRILATLEDGWLEGSLKGRTGIFPYIFVKLCPDTR [R54I]	-0.545 ± 0.13
EEPGTYGVALYRFQALEPNEVDFEVGDKIRILATLEDGWLEGSLKGRTGIFPYRFVKLCPDTR [L21V]	-0.619 ± 0.097
EEPGTYGVALYRFQALEPNENDFEVGDKIRILATLEDGWLEGSLKGRTGIFPYRFVKLCPDTR [L21N]	-0.843 ± 0.28
EEPGTYGVALYRFQALEPNEYDFEVGDKIRILATLEDGWLEGSLKGRTGIFPYRFVKLCPDTR [L21Y]	-1.03 ± 0.26
EEPGTYGVALFRFQALEPNELDFEVGDKIRILATLEDGWLEGSLKGRTGIFPYRFVKLCPDTR [Y11F]	0.01 ± 0.048
EEPGTYGVALYRFQAHEPNELDFEVGDKIRILATLEDGWLEGSLKGRTGIFPYRFVKLCPDTR [L16H]	0.141 ± 0.074
EEPGTYGVALYRFQALEPNELDFEIGDKIRILATLEDGWLEGSLKGRTGIFPYRFVKLCPDTR [V25I]	-0.142 ± 0.063
EEPGTYGVALYRFQALEPNELDFEKGDKIRILATLEDGWLEGSLKGRTGIFPYRFVKLCPDTR [V25K]	0.095 ± 0.14
EEPGTYGVALYRFQALEPNELDFEVGDFIRILATLEDGWLEGSLKGRTGIFPYRFVKLCPDTR [K28F]	-0.596 ± 0.096
EEPGTYGVALYRFQALEPNELDFEVGDKIRILATLEDGWLEGSLKGRTGIFPYRFVKNCPDTR [L58N]	-0.914 ± 0.12
EEPGTYGVALYRFQALEPKELDFEVGDKIRILATLEDGWLEGSLKGRTGIFPYRFVKLCPDTR [N19K]	-0.227 ± 0.14
EEPGTYGVALYRFQALEPSELDFEVGDKIRILATLEDGWLEGSLKGRTGIFPYRFVKLCPDTR [N19S]	-0.275 ± 0.05
EEPGTYGVALYRFQALEPIELDFEVGDKIRILATLEDGWLEGSLKGRTGIFPYRFVKLCPDTR [N19I]	-0.644 ± 0.087
EEPGTYGVALYRFQALEPNELDFEVGDKIRILATLEDGWLEGSLKIRTGIFPYRFVKLCPDTR [G46I]	-0.711 ± 0.059

Variant	abundance fitness
EEPGTYGVALYRFQALEPNELDFEVGDKIRILATLEDGWLEGSLKPRTGIFPYRFVKLCPDTR [G46P]	-0.611 ± 0.081
EEPGTYGVALYRFQALEPNELDFEVGDKIRILATLEDGWLEGSLKNRTGIFPYRFVKLCPDTR [G46N]	-0.326 ± 0.048
EEPGTYGVALYRFQALEPNELDFEVGDKIRILATLEDGWLEGSLKGRTGIFHYRFVKLCPDTR [P52H]	-0.734 ± 0.13
EEPGTYGVALYRFQALEPNELDFEVGDKIRILATLEDGWLEGSLKGRTGIFYYRFVKLCPDTR [P52Y]	-0.569 ± 0.11
EEPGTYGVALYRFQALEPNELDEEVGDKIRILATLEDGWLEGSLKGRTGIFPYRFVKLCPDTR [F23E]	-0.94 ± 0.39
EEPGTYGVALYRFQALEPNELDAEVGDKIRILATLEDGWLEGSLKGRTGIFPYRFVKLCPDTR [F23A]	-0.585 ± 0.1
VEPGTYGVALYRFQALEPNELDFEVGDKIRILATLEDGWLEGSLKGRTGIFPYRFVKLCPDTR [E1V]	-0.001 ± 0.052
AEPGTYGVALYRFQALEPNELDFEVGDKIRILATLEDGWLEGSLKGRTGIFPYRFVKLCPDTR [E1A]	-0.512 ± 0.13
EEPGTYGVALYRFQALEPNELDFEVGDKIRILATLEDFWLEGSLKGRTGIFPYRFVKLCPDTR [G38F]	-0.71 ± 0.11
EEPGTYGVALYRFQALEPNELDFEVGDKIRILATLEDGWLEGSLKGRTGIFPNRFVKLCPDTR [Y53N]	0.138 ± 0.068
EEPGTYGVALYRFQALEPNELDFEVGDKIRILATLEDGWLEGSLKGRTGIFPLRFVKLCPDTR [Y53L]	0.077 ± 0.061
EEPGTYGVALYRFQALEPNELDFEVYDKIRILATLEDGWLEGSLKGRTGIFPYRFVKLCPDTR [G26Y]	-0.847 ± 0.17
EEPGTYGVALYRFQALEPNELDFEVEDKIRILATLEDGWLEGSLKGRTGIFPYRFVKLCPDTR [G26E]	-1.01 ± 0.34
EEPGTYGVALYRFQALEPNELDFEVHDKIRILATLEDGWLEGSLKGRTGIFPYRFVKLCPDTR [G26H]	-0.718 ± 0.11
EEPGTYGVALYRFQVLEPNELDFEVGDKIRILATLEDGWLEGSLKGRTGIFPYRFVKLCPDTR [A15V]	-0.608 ± 0.11
EEHGTYGVALYRFQALEPNELDFEVGDKIRILATLEDGWLEGSLKGRTGIFPYRFVKLCPDTR [P3H]	0.088 ± 0.066
EEPGTYGVALYRFQALESNELDFEVGDKIRILATLEDGWLEGSLKGRTGIFPYRFVKLCPDTR [P18S]	-0.113 ± 0.05
EEPGTYGVALYRFQALEANELDFEVGDKIRILATLEDGWLEGSLKGRTGIFPYRFVKLCPDTR [P18A]	-0.188 ± 0.063
EEPGTYQVALYRFQALEPNELDFEVGDKIRILATLEDGWLEGSLKGRTGIFPYRFVKLCPDTR [G7Q]	-0.258 ± 0.22
EEPGTYGVALYRFFALEPNELDFEVGDKIRILATLEDGWLEGSLKGRTGIFPYRFVKLCPDTR [Q14F]	-0.413 ± 0.075
EEPGTYGVALYRNQALEPNELDFEVGDKIRILATLEDGWLEGSLKGRTGIFPYRFVKLCPDTR [F13N]	-0.023 ± 0.057
EEPGTNGVALYRFQALEPNELDFEVGDKIRILATLEDGWLEGSLKGRTGIFPYRFVKLCPDTR [Y6N]	-0.785 ± 0.095

Variant	abundance fitness
EEPGTYGVALYRFQALEPNELDFEVGDKIRILATLETGWLEGSLKGRTGIFPYRFVKLCPDTR [D37T]	-0.361 ± 0.099
EEPGTYGVALYRFQALEPNYLDFEVGDKIRILATLEDGWLEGSLKGRTGIFPYRFVKLCPDTR [E20Y]	0.059 ± 0.056
EEPGTYGVALYRFQALEPNLLDFEVGDKIRILATLEDGWLEGSLKGRTGIFPYRFVKLCPDTR [E20L]	-0.067 ± 0.056
EEPGTYGVALYRFQALEPNELDFEVGDKIRILATLEDGWLEGSLKGRTGISPYRFVKLCPDTR [F51S]	-0.794 ± 0.081
EEPGTYGVALYRFQALEPNELDFEVGDKIRILATLEDGWLEGSLKGRTGIVPYRFVKLCPDTR [F51V]	-0.224 ± 0.055
EEPGTYGVALYRFQALEPNELDFEVGDKIRIDATLEDGWLEGSLKGRTGIFPYRFVKLCPDTR [L32D]	-0.495 ± 0.069
EEPGTYGVALYRFQALEPNELDFEVGDKIRINATLEDGWLEGSLKGRTGIFPYRFVKLCPDTR [L32N]	-0.097 ± 0.055
EEPGTYGVALYRFQALEPNELDFEVGDKIRIKATLEDGWLEGSLKGRTGIFPYRFVKLCPDTR [L32K]	-0.588 ± 0.2
EEPGTYGVALYRFQALEPNELDFEVGDKIRIHATLEDGWLEGSLKGRTGIFPYRFVKLCPDTR [L32H]	-0.008 ± 0.062
EEPGTYGVALYRFQALEPNELDFEVGDKIRILATLEDGWLEGSLKGRTGIFPYRFGKLCPDTR [V56G]	-0.729 ± 0.075
EEPGTYGVALYRFQALEPNELDFEVGDKIRILATLEDGWLEGSLKGRPGIFPYRFVKLCPDTR [T48P]	-0.867 ± 0.18
EEPGTYGVALYRFQALEPNELDFEVGDKIRILATLEDGWLEGSLKGRLGIFPYRFVKLCPDTR [T48L]	-0.436 ± 0.063
EEPGTYGVALYRFQALEPNELDFEVGDKIRILATLEDGWLEGSLKGRMGIFPYRFVKLCPDTR [T48M]	-0.916 ± 0.27
EEPGTYGVALYRFQALEPNELDFEVGDKIRILATLEDGWLEGSLKGRWGIFPYRFVKLCPDTR [T48W]	-0.977 ± 0.29
EEPGTYGVALYRFQALEPNELTFEVGDKIRILATLEDGWLEGSLKGRTGIFPYRFVKLCPDTR [D22T]	-0.054 ± 0.062
EEPGTYGVALYRFQALEPNELDFEVGDKIRILATLEDGWLEGSLKGRTGIFPYRFVKLCPTTR [D61T]	-0.08 ± 0.077
EEPGTYGVALYRFQALGPNELDFEVGDKIRILATLEDGWLEGSLKGRTGIFPYRFVKLCPDTR [E17G]	0.072 ± 0.048
EEPGTYGVALYRFQALEPNELDFEVGDKIRILATLEDGWLEGSLKGRTGDFPYRFVKLCPDTR [I50D]	-0.91 ± 0.14
EEPGTYGVALYRFQALEPNELDFEVGDKIRILATLEDGWLEGSLKGRTGYFPYRFVKLCPDTR [I50Y]	-0.533 ± 0.073
EEPGTYGVALYRFQALEPNELDFEVGDKIRILATLEDGWLEGSLKGRTGIFPYRSVKLCPDTR [F55S]	-0.348 ± 0.035
EEPGTYGVALYRFQALEPNELDFEVGDKIRILATLEDGWLEGSLKGRTGIFPYRVVKLCPDTR [F55V]	-0.614 ± 0.043
EEPGTYGVALYRFQALEPNELDFEVGDKIRILATLEDGWLEGSLKGLTGIFPYRFVKLCPDTR [R47L]	-0.453 ± 0.084

Variant	abundance fitness
EEPGTYGVALYRFQALEPNELDFEVGDKIRILATLEDGWLEGSLKGFTGIFPYRFVKLCPDTR [R47F]	-0.713 ± 0.086
EEPGTYGVALYRFQALEPNELDFEVGDKIRILATLWDGWLEGSLKGRTGIFPYRFVKLCPDTR [E36W]	-0.612 ± 0.18
EEPGTYGVALYRFQALEPNELDFEVGDKIRILATLEDGWLEGSLKGRTGIFPYRFVKLCPDTD [R63D]	0.125 ± 0.087
EEPGTYGVALYRFQALEPNELDFEVGDKIRILATLEDGWLEGSLKGRTGIFPYRFVKLCPDTG [R63G]	0.119 ± 0.083
EEPGTYGVALYRFQALEPNELDFEVGDKIRILATLEDGWLEGSLKGRTGIFPYRFVKLCPDTH [R63H]	0.065 ± 0.063
EEPGTYGVALYRFQALEPNELDFEVGDKIRILATLEDGWLEGSLKGRTGIFPYRFVKLCPDTE [R63E]	-0.455 ± 0.29
EEPGTYGVALYRFQALEPNELDFEVGDKTRILATLEDGWLEGSLKGRTGIFPYRFVKLCPDTR [I29T]	-0.639 ± 0.12
EEPGTYGVALYRFQALEPNELDFEVGDKYRILATLEDGWLEGSLKGRTGIFPYRFVKLCPDTR [I29Y]	-0.808 ± 0.12
EEPGTYGVALYRFQALEPNELDFEVGDKIRILATLEDGWLERSLKGRTGIFPYRFVKLCPDTR [G42R]	-0.84 ± 0.14
EEPGTYGVALYRFQALEPNELDFEVGDKIRILATLEDGWLEVSLKGRTGIFPYRFVKLCPDTR [G42V]	-0.575 ± 0.08
EEPGTYGVALYRFQALEPNELDFEVGDKIRILATLEDGWLESSLKGRTGIFPYRFVKLCPDTR [G42S]	-0.846 ± 0.1
EEPGTYGVQLYRFQALEPNELDFEVGDKIRILATLEDGWLEGSLKGRTGIFPYRFVKLCPDTR [A9Q]	-0.821 ± 0.44
EEPGTYGVALYRFQALEPNELDFEVGDKIRILAVLEDGWLEGSLKGRTGIFPYRFVKLCPDTR [T34V]	-0.192 ± 0.048
EEPGTYGVALYRFQALEPNELDFEVGDKIRILARLEDGWLEGSLKGRTGIFPYRFVKLCPDTR [T34R]	-0.196 ± 0.056
EEPGTYGVALYRFQALEPNELDFEVGDKIRILAELEDGWLEGSLKGRTGIFPYRFVKLCPDTR [T34E]	-0.038 ± 0.12
EEPGTYGVALYRFQALEPNELDFEVGDKIRILCTLEDGWLEGSLKGRTGIFPYRFVKLCPDTR [A33C]	-0.291 ± 0.074
EEPGTYGVALYRFQALEPNELDFEVGDKIRILNTLEDGWLEGSLKGRTGIFPYRFVKLCPDTR [A33N]	0.017 ± 0.058
EEPGTYGVALYRFQALEPNELDFEVGDKIRILATLEDGWLEGSLRGRTGIFPYRFVKLCPDTR [K45R]	-0.168 ± 0.071
EEPGTYGVALYRFQALEPNELDFEVGDKIRILATLEDGWLEGSLNGRTGIFPYRFVKLCPDTR [K45N]	0.037 ± 0.061
